Assay results reported in PMC11574045, “A cofactor-induced repressive type of transcription factor condensation can be induced by synthetic peptides to suppress tumorigenesis” (The EMBO Journal, 2024).

Tested on: HEK293FT cells transfected with TF library
Assay: Screening of TF condensates based on fluorescent puncta
Assay type: cell-based
Conditions: Figure 1B numerical data; TF library screen, one value per transcriptional factor
Procedure, shortened: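 TF plasmids (final 1.6 μg/ml) reverse-transfected with PEI (4.8 μg/ml) into HEK293FT cells; after 60 h, cells cultured ±glucose for 12 h, fixed in 4% PFA and immunostained for Flag or GAL4 tags with Alexa 488 secondaries. Puncta scored by automated imaging of 50 random fields per well.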

Molecule	Z score of condensed fraction
ZNF473 (protein, UniProt Q8WTR7 1-871, looked up) Zinc finger protein 473: MAEEFVTLKDVGMDFTLGDWEQLGLEQGDTFWDTALDNCQDLFLLDPPRPNLTSHPDGSEDLEPLAGGSPEATSPDVTETKNSPLMEDFFEEGFSQEIIEMLSKDGFWNSNFGEACIEDTWLDSLLGDPESLLRSDIATNGESPTECKSHELKRGLSPVSTVSTGEDSMVHNVSEKTLTPAKSKEYRGEFFSYSDHSQQDSVQEGEKPYQCSECGKSFSGSYRLTQHWITHTREKPTVHQECEQGFDRNASLSVYPKTHTGYKFYVCNEYGTTFSQSTYLWHQKTHTGEKPCKSQDSDHPPSHDTQPGEHQKTHTDSKSYNCNECGKAFTRIFHLTRHQKIHTRKRYECSKCQATFNLRKHLIQHQKTHAAKTTSECQECGKIFRHSSLLIEHQALHAGEEPYKCNERGKSFRHNSTLKIHQRVHSGEKPYKCSECGKAFHRHTHLNEHRRIHTGYRPHKCQECVRSFSRPSHLMRHQAIHTAEKPYSCAECKETFSDNNRLVQHQKMHTVKTPYECQECGERFICGSTLKCHESVHAREKQGFFVSGKILDQNPEQKEKCFKCNKCEKTFSCSKYLTQHERIHTRGVKPFECDQCGKAFGQSTRLIHHQRIHSRVRLYKWGEQGKAISSASLIKLQSFHTKEHPFKCNECGKTFSHSAHLSKHQLIHAGENPFKCSKCDRVFTQRNYLVQHERTHARKKPLVCNECGKTFRQSSCLSKHQRIHSGEKPYVCDYCGKAFGLSAELVRHQRIHTGEKPYVCQECGKAFTQSSCLSIHRRVHTGEKPYRCGECGKAFAQKANLTQHQRIHTGEKPYSCNVCGKAFVLSAHLNQHLRVHTQETLYQCQRCQKAFRCHSSLSRHQRVHNKQQYCL	-0.9289
CCNH (protein, UniProt P51946 1-323, looked up) Cyclin-H: MYHNSSQKRHWTFSSEEQLARLRADANRKFRCKAVANGKVLPNDPVFLEPHEEMTLCKYYEKRLLEFCSVFKPAMPRSVVGTACMYFKRFYLNNSVMEYHPRIIMLTCAFLACKVDEFNVSSPQFVGNLRESPLGQEKALEQILEYELLLIQQLNFHLIVHNPYRPFEGFLIDLKTRYPILENPEILRKTADDFLNRIALTDAYLLYTPSQIALTAILSSASRAGITMESYLSESLMLKENRTCLSQLLDIMKSMRNLVKKYEPPRSEEVAVLKQKLERCHSAELALNVITKKRKGYEDDDYVSKKSKHEEEEWTDDDLVESL	-0.9342
ZNF512 (protein, UniProt Q96ME7 1-567, looked up) Zinc finger protein 512: MSSRLGAVPATSGPTTFKQQRSTRIVGAKNSRTQCSIKDNSFQYTIPHDDSLSGSSSASSCEPVSDFPASFRKSTYWMKMRRIKPAATSHVEGSGGVSAKGKRKPRQEEDEDYREFPQKKHKLYGRKQRPKTQPNPKSQARRIRKEPPVYAAGSLEEQWYLEIVDKGSVSCPTCQAVGRKTIEGLKKHMENCKQEMFTCHHCGKQLRSLAGMKYHVMANHNSLPILKAGDEIDEPSERERLRTVLKRLGKLRCMRESCSSSFTSIMGYLYHVRKCGKGAAELEKMTLKCHHCGKPYRSKAGLAYHLRSEHGPISFFPESGQPECLKEMNLESKSGGRVQRRSAKIAVYHLQELASAELAKEWPKRKVLQDLVPDDRKLKYTRPGLPTFSQEVLHKWKTDIKKYHRIQCPNQGCEAVYSSVSGLKAHLGSCTLGNFVAGKYKCLLCQKEFVSESGVKYHINSVHAEDWFVVNPTTTKSFEKLMKIKQRQQEEEKRRQQHRSRRSLRRRQQPGIELPETELSLRVGKDQRRNNEELVVSASCKEPEQEPVPAQFQKVKPPKTNHKRGRK	-0.5967
ZNF488 (protein, UniProt Q96MN9 1-340, looked up) Zinc finger protein 488: MPEWPPCLSVAPALVITMAAGKGAPLSPSAENRWRLSEPELGRGCKPVLLEKTNRLGPEAAVGRAGRDVGSAELALLVAPGKPRPGKPLPPKTRGEQRQSAFTELPRMKDRQVDAQAQEREHDDPTGQPGAPQLTQNIPRGPAGSKVFSVWPSGARSEQRSAFSKPTKRPAERPELTSVFPAGESADALGELSGLLNTTDLACWGRLSTPKLLVGDLWNLQALPQNAPLCSTFLGAPTLWLEHTQAQVPPPSSSSTTSWALLPPTLTSLGLSTQNWCAKCNLSFRLTSDLVFHMRSHHKKEHAGPDPHSQKRREEALACPVCQEHFRERHHLSRHMTSHS	-0.1473
ZNF484 (protein, UniProt Q5JVG2 1-852, looked up) Zinc finger protein 484: MTKSLESVSFKDVTVDFSRDEWQQLDLAQKSLYREVMLENYFNLISVGCQVPKPEVIFSLEQEEPCMLDGEIPSQSRPDGDIGFGPLQQRMSEEVSFQSEININLFTRDDPYSILEELWKDDEHTRKCGENQNKPLSRVVFINKKTLANDSIFEYKDIGEIVHVNTHLVSSRKRPHNCNSCGKNLEPIITLYNRNNATENSDKTIGDGDIFTHLNSHTEVTACECNQCGKPLHHKQALIQQQKIHTRESLYLFSDYVNVFSPKSHAFAHESICAEEKQHECHECEAVFTQKSQLDGSQRVYAGICTEYEKDFSLKSNRQKTPYEGNYYKCSDYGRAFIQKSDLFRCQRIHSGEKPYEYSECEKNLPQNSNLNIHKKIHTGGKHFECTECGKAFTRKSTLSMHQKIHTGEKPYVCTECGKAFIRKSHFITHERIHTGEKPYECSDCGKSFIKKSQLHVHQRIHTGENPFICSECGKVFTHKTNLIIHQKIHTGERPYICTVCGKAFTDRSNLIKHQKIHTGEKPYKCSDCGKSFTWKSRLRIHQKCHTGERHYECSECGKAFIQKSTLSMHQRIHRGEKPYVCTECGKAFFHKSHFITHERIHTGEKPYECSICGKSFTKKSQLHVHQQIHTGEKPYRCAECGKAFTDRSNLFTHQKIHTGEKPYKCSDCGKAFTRKSGLHIHQQSHTGERHYECSECGKAFARKSTLIMHQRIHTGEKPYICNECGKSFIQKSHLNRHRRIHTGEKPYECSDCGKSFIKKSQLHEHHRIHTGEKPYICAECGKAFTIRSNLIKHQKIHTKQKPYKCSDLGKALNWKPQLSMPQKSDNGEVECSMPQLWCGDSEGDQGQLSSI	-0.5495
ZNF501 (protein, UniProt Q96CX3 1-271, looked up) Zinc finger protein 501: MNSSQISLRMKHGRVNMQKKPSKCSECGKFFTQRSSLTQHQRIHRGEKPYVCSECGSCFRKQSNLTQHLRIHTGEKPYKCNECEKAFQTKAILVQHLRIHTGEKPYKCNECGKAFCQSPSLIKHQRIHTGEKPYKCTECGKAFSQSICLTRHQRSHSGDKPFKCNECGKAFNQSACLMQHQRIHSGEKPYTCTECGKAFTQNSSLVEHERTHTGEKLYKCSECEKTFRKQAHLSEHYRIHTGEKPYECVGCGKSFRHSSALLRHQRLHAGE	-1.032
ZNF555 (protein, UniProt Q8NEP9 1-628, looked up) Zinc finger protein 555: MDSVVFEDVAVDFTLEEWALLDSAQRDLYRDVMLETFQNLASVDDETQFKASGSVSQQDIYGEKIPKESKIATFTRNVSWASVLGKIWDSLSIEDQTTNQGRNLSRNHGLERLCESNDQCGEALSQIPHLNLYKKIPPGVKQYEYNTYGKVFMHRRTSLKSPITVHTGHKPYQCQECGQAYSCRSHLRMHVRTHNGERPYVCKLCGKTFPRTSSLNRHVRIHTAEKTYECKQCGKAFIDFSSLTSHLRSHTGEKPYKCKECGKAFSYSSTFRRHTITHTGEKPYKCKECAEAFSYSSTFRRHMISHTGEKPHKCKECGEAFSYSSAFRRHMITHTGEKPYECKQCGKTFIYLQSFRRHERIHTGEKPYECKQCGKTFIYPQSFRRHERTHGGEKPYECNQCGKAFSHPSSFRGHMRVHTGEKPYECKQCGKTFNWPISLRKHMRTHTREKPYECKQCGKAFSLSACFREHVRMHPEDKSYECKLCGKAFYCHISLQKHMRRHTAEKLYKCKQCGKAFSWPELLQQHVRTHTVEKPYECKECGKVFKWPSSLPIHMRLHTGEKPYQCKHCGKAFNCSSSLRRHVRIHTTEKQYKCNVGHPPANEFMCSASEKSHQERDLIKVVNMVLPL	-0.894
ZNF563 (protein, UniProt Q8TA94 1-476, looked up) Zinc finger protein 563: MDAVAFEDVAVNFTQEEWALLGPSQKNLYRYVMQETIRNLDCIRMIWEEQNTEDQYKNPRRNLRCHMVERFSESKDSSQCGETFSLIRDSIVNNSICPGEDPCQSAECEEVIMGHLSLNSHIRVDSGHKPHEYQEYGEKPHTHKQRGKAFSYHHSFQSRGRPHTGKKRYECKECGKTFSSRRNLRRHMVVQGGNRPYKCKLCGKAFFWPSLLRMHERTHTGEKPYECKQCSKAFPFYSSYRRHERMHTGEKPYECKQCSKALPDSSSYIRHERTHTGEKPYTCKQCGKAFSVSSSLRRHETTHSAEKPYECKQCGKTFHHLGSFQIHMKRHTGDRPHKCKICGKGFDRPSLVRYHERIHTGEKPYECKQCGKTLSHSSSFRRHMIMHTGGGPHKCKICGKAFVYPSVCQRHEKSHSGEKPYECKQCGKALSHSSSFRRHMVMHTGDGPNKCKVCGKAFVYPSVCQRHEKTHWRETI	-0.4635
ZNF550 (protein, UniProt Q7Z398 1-422, looked up) Zinc finger protein 550: MAETKDAAQMLVTFKDVAVTFTREEWRQLDLAQRTLYREVMLETCGLLVSLGHRVPKPELVHLLEHGQELWIVKRGLSHATCAGDRAQVHTREPTTYPPVLSERAFLRGSLTLESSTSSDSRLGRARDEEGLLEMQKGKVTPETDLHKETHLGKVSLEGEGLGTDDGLHSRALQEWLSADVLHECDSQQPGKDALIHAGTNPYKCKQCGKGFNRKWYLVRHQRVHTGMKPYECNACGKAFSQSSTLIRHYLIHTGEKPYKCLECGKAFKRRSYLMQHHPIHTGEKPYECSQCRKAFTHRSTFIRHNRTHTGEKPFECKECEKAFSNRAHLIQHYIIHTGEKPYDCMACGKAFRCSSELIQHQRIHTGEKPYECTQCGKAFHRSTYLIQHSVIHTGEMPYKCIECGKAFKRRSHLLQHQRVHT	-0.5599
ZNF483 (protein, UniProt Q8TF39 1-744, looked up) Zinc finger protein 483: MQAVVPLNKMTAISPEPQTLASTEQNEVPRVVTSGEQEAILRGNAADAESFRQRFRWFCYSEVAGPRKALSQLWELCNQWLRPDIHTKEQILELLVFEQFLTILPGEIRIWVKSQHPESSEEVVTLIEDLTQMLEEKDPVSQDSTVSQEENSKEDKMVTVCPNTESCESITLKDVAVNFSRGEWKKLEPFQKELYKEVLLENLRNLEFLDFPVSKLELISQLKWVELPWLLEEVSKSSRLDESALDKIIERCLRDDDHGLMEESQQYCGSSEEDHGNQGNSKGRVAQNKTLGSGSRGKKFDPDKSPFGHNFKETSDLIKHLRVYLRKKSRRYNESKKPFSFHSDLVLNRKEKTAGEKSRKSNDGGKVLSHSSALTEHQKRQKIHLGDRSQKCSKCGIIFIRRSTLSRRKTPMCEKCRKDSCQEAALNKDEGNESGEKTHKCSKCGKAFGYSASLTKHRRIHTGEKPYMCNECGKAFSDSSSLTPHHRTHSGEKPFKCDDCGKGFTLSAHLIKHQRIHTGEKPYKCKDCGRPFSDSSSLIQHQRIHTGEKPYTCSNCGKSFSHSSSLSKHQRIHTGEKPYKCGECGKAFRQNSCLTRHQRIHTGEKPYLCNDCGMTFSHFTSVIYHQRLHSGEKPYKCNQCEKAFPTHSLLSRHQRIHTGVKPYKCKECGKSFSQSSSLNEHHRIHTGEKPYECNYCGATFSRSSILVEHLKIHTGRREYECNECEKTFKSNSGLIRHRGFHSAE	2.279
